Laboratory results: PMC5387809, “The Combination of Computational and Biosensing Technologies for Selecting Aptamer against Prostate Specific Antigen”

Molecular target: T1, prostate specific antigen (PSA) (human, UniProt P07288 25-261)
Assay: SPR; ka 3.37e3 M-1s-1, kd 12.34e-3 s-1; PBS (10 mM Na2HPO4, 137 mM NaCl, 2 mM KH2PO4, 2.7 mM KCl), pH 7.4; SPR at 25 C, 50 ul/min; PSA 2 ng/ml; DNA/PEG thiol SAM on gold; QCM temperature not stated
Details: protein: commercial; hairpin (predicted)

T1 sequence (P07288 25-261): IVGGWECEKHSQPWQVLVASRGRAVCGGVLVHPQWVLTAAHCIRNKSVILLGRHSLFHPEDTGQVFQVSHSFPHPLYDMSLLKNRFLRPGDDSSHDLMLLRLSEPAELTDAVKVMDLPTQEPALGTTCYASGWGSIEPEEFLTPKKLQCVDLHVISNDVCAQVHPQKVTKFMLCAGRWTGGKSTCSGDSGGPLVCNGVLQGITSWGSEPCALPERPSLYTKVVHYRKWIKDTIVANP

In the case of TTTTTAATATCCGGGTTCCCGGTTGTCTCTTT (ssDNA, 5' C6 thiol) [PSAG24], the Ka is reported as 0.27 ± 0.04 10^6 M-1.

Molecular target: T1, prostate specific antigen (PSA)
Assay: QCM; 2 ng/ml PSA injected; PBS (10 mM Na2HPO4, 137 mM NaCl, 2 mM KH2PO4, 2.7 mM KCl), pH 7.4; SPR at 25 C, 50 ul/min; PSA 2 ng/ml; DNA/PEG thiol SAM on gold; QCM temperature not stated
Details: protein: commercial; hairpin (predicted)

In order of rising binding signal:
1. TTTTTCTGTTGCCCGGAACGTCGTGGCCCTTT (ssDNA, 5' C6 thiol) [PSAG11]  19.2 ± 1.7 Hz (frequency drop)
2. TTTTTCCGCACAACTTGCCATCAAATATCTTT (ssDNA, 5' C6 thiol) [PSAG118]  24.9 ± 3.9 Hz (frequency drop)
3. TTTTTCTGGTCCGGGTACGTTTTTTGGCCTTT (ssDNA, 5' C6 thiol) [PSAG17]  37.3 ± 1.9 Hz (frequency drop)
4. TTTTTCCGCACCGGGTACGGTCGTGGCCCTTT (ssDNA, 5' C6 thiol) [PSAG114]  63 ± 5.4 Hz (frequency drop)
5. TTTTTACTTAATGCGGAACGTCGTGGCCCTTT (ssDNA, 5' C6 thiol) [PSAG112]  71.7 ± 1.3 Hz (frequency drop)
6. TTTTTAATATCCGGGTACGTTTTTTGGCCTTT (ssDNA, 5' C6 thiol) [PSAG117]  82.9 ± 5.8 Hz (frequency drop)
7. TTTTTACGCACCGGGTACGTTTTTTGGCCTTT (ssDNA, 5' C6 thiol) [PSAG119]  91.3 ± 9.7 Hz (frequency drop)
8. TTTTTCTGGAATGATTTCCCGGTTGTCTCTTT (ssDNA, 5' C6 thiol) [PSAG15]  108 ± 14 Hz (frequency drop)

Molecular target: T1, prostate specific antigen (PSA)
Assay: as above
Details: protein: commercial; hairpin (predicted)
Remark: another data set of the same source

In order of falling binding signal:
1. TTTTTAATATCCGGGGAACGTCGTGGCCCTTT (ssDNA, 5' C6 thiol) [PSAG28]  166 ± 6.7 Hz (frequency drop)
2. TTTTTAATATCCGGGTTCCCGGTTGTCTCTTT (ssDNA, 5' C6 thiol) [PSAG24]  131 ± 4.9 Hz (frequency drop)
3. TTTTTACGCACCGGGTACGTTTTTTGGCCTTT (ssDNA, 5' C6 thiol) [PSAG212]  59.5 ± 5.8 Hz (frequency drop)

Molecular target: T1, prostate specific antigen (PSA)
Assay: SPR; ka 3.11e3 M-1s-1, kd 11.23e-3 s-1; PBS (10 mM Na2HPO4, 137 mM NaCl, 2 mM KH2PO4, 2.7 mM KCl), pH 7.4; SPR at 25 C, 50 ul/min; PSA 2 ng/ml; DNA/PEG thiol SAM on gold; QCM temperature not stated
Details: protein: commercial; hairpin (predicted)

With TTTTTACGCACCGGGTACGTTTTTTGGCCTTT (ssDNA, 5' C6 thiol) [PSAG212] the Ka was 0.28 ± 0.03 10^6 M-1.
